± gives the standard deviation of the averaged measurements.
System: ATP
Assay: switch fluorescence ratio, 500 uM ATP over buffer (Cy3 cluster intensity, sum of 5 cycles each) (fold (ratio)); higher = stronger signal-on switching upon ATP binding; sequences stand for … in TCGTCGGCAGCGTCAGATGTGTATAAGAGACAGTTTTTTTTTTTTTTTTTTTTTTTTT…TC
Details: aptamer strand: ATP DNA aptamer (quencher-CACCTGGGGGAGTATTGCGGAGGAAGG + anchor), 100 nM annealed; ATP concentration: 500 uM
Summary of the method: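 Between each of five buffer/ATP cycles, the flow-cell was stripped with NaOH and re-annealed. Each cycle imaged Cy3-labelled switching-strand clusters, annealed to 100 nM quencher-labelled ATP aptamer on a modified Illumina MiSeq flow-cell, first in selection buffer and then after 15 min with 500 uM ATP at 22 °C. The fluorescence ratio is summed target-cycle over summed buffer-cycle Cy3 intensity per cluster, averaged per switch-domain sequence, with clusters outside 100-1000 RFU excluded.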
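Further: ATP exposure 15 min at 22 °C before imaging.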

| Sequence | switch fluorescence ratio |
| --- | --- |
| GGCTAATGCG | 1.01 ± 0.036 |
| GGCTACCAGT | 0.96 ± 0.038 |
| GGCTACGAGA | 1.04 ± 0.018 |
| GGCTACTGGA | 1.03 ± 0.095 |
| GGCTAGCCAG | 1.01 ± 0.011 |
| GGCTATCTTT | 1 ± 0.029 |
| GGCTATGGGG | 1 ± 0.013 |
| GGCTCACGGT | 0.98015 ± 0.00082 |
| GGCTGAAGTT | 0.994 ± 0.022 |
| GGCTGCGCGG | 1 ± 0.032 |
| GGCTGGACGG | 1.01 ± 0.011 |
| GGCTGGGCAG | 0.981 ± 0.035 |
| GGCTGGGGGT | 1.1 ± 0.07 |
| GGCTGTAAGT | 0.9844 ± 0.0066 |
| GGCTGTACTT | 1.03 ± 0.047 |
| GGCTGTATTT | 0.9965 ± 0.0031 |
| GGCTTAAAAA | 0.982 ± 0.021 |
| GGCTTAAGAT | 0.998 ± 0.017 |
| GGCTTACAGT | 0.9941 ± 0.0061 |
| GGCTTCTGGG | 0.98911 ± 0.00037 |
| GGCTTGCTAG | 1.001 ± 0.0046 |
| GGCTTGGCCC | 1.015 ± 0.0063 |
| GGCTTGGGGA | 1.01 ± 0.036 |
| GGCTTTACCT | 1.101 ± 0.0097 |
| GGCTTTGGAC | 0.994 ± 0.055 |

| Sequence | switch fluorescence ratio |
| --- | --- |
| GGCTTTGTCC | 0.991 ± 0.032 |
| GGCTTTTACT | 1.04 ± 0.019 |
| GGCTTTTTAC | 1.06 ± 0.036 |
| GGGAAAAATT | 1.013 ± 0.006 |
| GGGAAAAGTT | 1 ± 0.04 |
| GGGAAACGGG | 0.995 ± 0.011 |
| GGGAAAGAGC | 1.151 ± 0.0064 |
| GGGAAAGCAC | 1.12 ± 0.021 |
| GGGAAAGGAG | 0.989 ± 0.035 |
| GGGAAAGGTA | 0.986 ± 0.011 |
| GGGAAAGTGG | 1.012 ± 0.008 |
| GGGAAATCGG | 0.986 ± 0.014 |
| GGGAAATGGG | 0.9747 ± 0.0087 |
| GGGAAATGTG | 1 ± 0.023 |
| GGGAACACTT | 0.998 ± 0.025 |
| GGGAACGGAA | 2.4 ± 1.8 |
| GGGAAGAGGA | 0.979 ± 0.025 |
| GGGAAGCCGT | 1.14 ± 0.23 |
| GGGAAGGGGT | 1.01 ± 0.055 |
| GGGAAGGGTG | 1.08 ± 0.089 |
| GGGAAGGTAC | 1.047 ± 0.0014 |
| GGGAAGGTCT | 0.994 ± 0.03 |
| GGGAAGTCAC | 1.121 ± 0.0039 |
| GGGAAGTCTG | 0.955 ± 0.024 |
| GGGAAGTTCA | 1 ± 0.029 |

| Sequence | switch fluorescence ratio |
| --- | --- |
| GGGAAGTTTT | 0.978 ± 0.027 |
| GGGAATAACT | 0.998 ± 0.037 |
| GGGAATAAGC | 0.978 ± 0.034 |
| GGGAATGGGC | 0.991 ± 0.066 |
| GGGAATGTTA | 0.9902 ± 0.007 |
| GGGAATGTTT | 0.978 ± 0.03 |
| GGGAATTTTC | 1.004 ± 0.0074 |
| GGGACAAGTC | 1.023 ± 0.0067 |
| GGGACATTAT | 1 ± 0.02 |
| GGGACCTTTT | 1 ± 0.032 |
| GGGACGGGTG | 1.02 ± 0.025 |
| GGGACTATCA | 0.982 ± 0.014 |
| GGGACTATGA | 1 ± 0.021 |
| GGGACTGCGT | 0.9624 ± 0.0072 |
| GGGACTTAAC | 1.03 ± 0.014 |
| GGGACTTTAC | 1.18 ± 0.038 |
| GGGACTTTTG | 0.986 ± 0.15 |
| GGGAGAGGGG | 0.987 ± 0.02 |
| GGGAGCAAGG | 1.1 ± 0.018 |
| GGGAGCCACG | 1.02 ± 0.036 |
| GGGAGCCCGG | 0.989 ± 0.038 |
| GGGAGCCGGG | 1.03 ± 0.015 |
| GGGAGCCTAT | 1 ± 0.042 |
| GGGAGCGTTG | 1.01 ± 0.016 |
| GGGAGGCAGG | 1.07 ± 0.029 |

| Sequence | switch fluorescence ratio |
| --- | --- |
| GGGAGGCATG | 0.936 ± 0.13 |
| GGGAGGGAGG | 0.988 ± 0.021 |
| GGGAGGGCA | 1 ± 0.011 |
| GGGAGGGCAA | 0.986 ± 0.013 |
| GGGAGGGGGC | 1.01 ± 0.075 |
| GGGAGGGGTG | 1.02 ± 0.064 |
| GGGAGGGTGA | 0.99 ± 0.025 |
| GGGAGGGTGT | 1.09 ± 0.02 |
| GGGAGGTCGG | 1.01 ± 0.025 |
| GGGAGGTTGT | 0.966 ± 0.028 |
| GGGAGTACGT | 1 ± 0.019 |
| GGGAGTAGCG | 0.997 ± 0.022 |
| GGGAGTAGGG | 0.998 ± 0.015 |
| GGGAGTATAG | 0.9907 ± 0.0089 |
| GGGAGTATAT | 0.992 ± 0.016 |
| GGGAGTCCAA | 0.995 ± 0.019 |
| GGGAGTCTTG | 0.987 ± 0.015 |
| GGGAGTGGGC | 0.87939 ± 0.00069 |
| GGGATAAAAT | 1.01 ± 0.017 |
| GGGATAATTT | 0.988 ± 0.017 |
| GGGATAGAGA | 1.02 ± 0.03 |
| GGGATAGATC | 1.05 ± 0.016 |
| GGGATATATT | 0.9914 ± 0.0074 |
| GGGATCAGCT | 1.006 ± 0.0046 |
| GGGATCCATG | 1.01 ± 0.019 |
